The data set deals with the molecule itself. Put plainly: SEC.

B1: reduced TRC40 from Danio rerio (natural protein)
chain: not shown
Take B1: the “stoichiometry N” value came out at 2.

B2: oxidized Get3 from Saccharomyces cerevisiae (natural protein, UniProt Q12154 1-354, looked up)
chain: MDLTVEPNLHSLITSTTHKWIFVGGKGGVGKTTSSCSIAIQMALSQPNKQFLLISTDPAHNLSDAFGEKFGKDARKVTGMNNLSCMEIDPSAALKDMNDMAVSRANNNGSDGQGDDLGSLLQGGALADLTGSIPGIDEALSFMEVMKHIKRQEQGEGETFDTVIFDTAPTGHTLRFLQLPNTLSKLLEKFGEITNKLGPMLNSFMGAGNVDISGKLNELKANVETIRQQFTDPDLTTFVCVCISEFLSLYETERLIQELISYDMDVNSIIVNQLLFAENDQEHNCKRCQARWKMQKKYLDQIDELYEDFHVVKMPLCAGEIRGLNNLTKFSQFLNKEYNPITDGKVIYELEDKE
modifications: oxidized cysteines (positions not given)
B2: the binding result is “binds”.

B3: reduced Get3 from Saccharomyces cerevisiae (natural protein, UniProt Q12154 1-354, looked up)
chain: B2 chain
On to B3, for which the binding result is listed as “binds”.

B4: oxidized TRC40 from Danio rerio (natural protein)
chain: not shown
modifications: oxidized cysteines: intra- and intermolecular disulfide bonds (positions not given)
For the protein B4, the “stoichiometry N” value is not below 4.

Usually stoichiometry N stands for a count of units in the complex or per binding partner.

The values above are taken from article doi:10.1101/2024.07.10.602939 (bioRxiv, 2024).
